B1: TNXB (parent)
chain: FSEIRETSAKVNWMPPPSRADSFK
B2: TMEM192 (parent)
chain: LWILHLLLECYIQYHHSKIRNRGY

Variants of: B1
Assay: protein stability index of a GFP-peptide fusion (GPS, HEK-293T) (PSI 1-6); higher = more stable
Conditions: c terminus: a fixed tail appended
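Also: lentivirally expressed fusions sorted by FACS into six bins by GFP to DsRed ratio, PSI derived from sequencing read proportions per bin multiplied by bin number.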

Protein stability index of substitutions, site by site:
F1: C 3.69 | A 4.29 | E 4.45 | D 5.04

Variants of: B2
Assay: as above
Conditions: c terminus: a fixed tail appended

Protein stability index, by site and new letter:
I12: C 1.69 | F 3.41 | T 2.58 | W 1.79 | D 1.5 | M 1.82 | G 1.07 | Q 1.62 | K 2.21 | S 1.94 | H 1.95 | R 2.8 | V 2.27 | L 2.53 | N 2.13 | E 1.88
G23: N 1.79 | Y 1.89 | Q 2.51 | W 1.77 | F 1.38 | A 2.48 | K 2.54 | T 2.78 | V 3.73 | M 1.87 | C 2.04 | R 1.78 | P 3.17 | I 2.99
L4: C 2.96 | V 1.83 | P 2.85 | H 3.85 | T 1.17 | A 4.26 | M 2.39 | F 1.69 | K 2.51 | Y 2.68 | R 3.42 | S 3.7 | I 2.29
I3: D 1.71 | S 2.32 | T 2.34 | M 1.35 | G 1.37 | R 1.74 | V 2.65 | N 2.2 | C 2.62 | L 3.4 | E 1.68 | W 1.61 | H 2.09 | Y 1.62 | A 1.76 | K 2.31 | Q 1.37
W2: M 2.41 | P 1.23 | V 3.84 | N 2.28 | Q 2.66 | Y 1.25 | K 1.94 | R 1.63 | S 1.58 | T 1.86
S17: W 2.15 | I 2.57 | V 1.59 | Y 4.45 | R 3.51 | M 1.11 | C 2.7 | A 2.68 | P 2.26 | T 2.08 | G 2.28 | H 2.86 | D 2.04 | N 2.6 | Q 2.37
Q13: P 3 | S 1.9 | K 2.05 | N 3.19 | C 2.06 | Y 1.85 | M 2.08 | G 1.39 | I 2.75 | F 2.88 | L 2 | A 3.94 | R 2.9 | T 1.75 | D 2.32 | E 1.8 | H 2.98
Y14: N 1.53 | S 2.47 | I 1.79 | V 2.53 | Q 2 | R 2.11 | K 2.01 | P 2.67 | H 2.31 | F 2.96 | W 1.1 | C 2.16 | G 1.41 | E 2.18 | L 3.2 | A 3.1 | D 2.21 | T 2.49
I19: T 1.94 | L 2.14 | S 1.78 | W 1.88 | G 2.44 | N 1.88 | A 2.33 | Q 1.55 | K 1.31 | F 3.16 | D 1.73 | R 1.96 | H 1.43 | P 2.04 | V 2.01
L7: H 2.78 | N 2 | C 2.32 | E 2.73 | Y 2.48 | I 3.46 | P 2.33 | V 3.56 | Q 2.34 | R 1.89 | F 1.88 | T 3.78 | M 2.51 | D 3.52 | A 3.25
H5: C 1.66 | V 2.22 | T 2.61 | P 3.17 | D 1.05 | L 2.28 | G 1.48 | Q 1.72 | E 2.26 | I 2.77 | K 2.35
Y11: G 3.4 | S 3.45 | K 1.93 | E 3.19 | D 1.25 | M 2.48 | F 3.94 | T 2.21 | H 1.77 | Q 2.06 | N 3.81 | I 2.47 | A 2.47
E9: L 1.7 | Q 2.48 | I 2.56 | T 1.96 | S 2.28 | G 2 | H 1.47 | C 3.27 | D 1.94 | M 2.33 | W 3.27 | V 3.35 | R 2.99 | P 3.73 | N 1.44 | K 3.05 | F 3.6
R20: P 3.47 | A 3.18 | L 1.89 | N 2.26 | Q 1.87 | I 3.52 | G 2.05 | H 2.63 | W 2.45 | Y 2.69 | D 2.8 | S 2.63 | M 3.17 | T 2.38 | K 1.97
N21: V 2.93 | G 2.35 | L 2.11 | R 3.57 | H 2.53 | S 2.7 | A 2.86 | F 1.97 | I 2.45 | P 2.81 | W 2.74 | Y 2.6 | K 1.98
L6: H 2.37 | M 1.65 | P 1.97 | E 2.09 | T 2.81 | S 1.62 | C 1.67 | R 1.73 | Q 1.99 | N 1.97 | I 1.65 | Y 1.8 | K 2 | G 1.69 | A 2.43 | D 1.87
K18: T 2.76 | R 4.17 | F 2.88 | G 2.69 | E 2.77 | N 3.08 | M 3.16 | P 2.32 | H 4.09 | D 3.53 | S 3.8 | Q 2.67
H16: N 1.3 | E 1.91 | S 1.05 | R 1.5 | G 2.53 | P 2.29 | L 1.85 | C 2.41 | W 2.85 | V 2.54 | F 2.36 | Q 2.43 | D 1.47 | K 1.64 | I 3.68
R22: Y 1.98 | A 2.18 | L 2.44 | Q 3.54 | P 1.67 | V 1.17 | W 3.32 | S 2.66 | D 3.49 | N 2.26 | K 1.46 | F 2.93 | I 2.69 | C 4.22
Y24: C 1.79 | K 1.31 | V 2.69 | N 2.44 | R 2.31 | M 2.28 | I 2.54 | G 3.91 | Q 1.57 | P 2.52 | T 1.12 | S 2.3 | H 1.62 | A 2.18
H15: R 2.33 | G 2.37 | T 1.25 | S 2.72 | C 2.19 | Y 2.86 | N 2.7 | M 2.41 | D 1.56 | L 2.14 | Q 2.24 | P 2.18 | V 2.15
L8: H 3.75 | K 2.54 | D 4.78 | I 3.28 | Y 2.71 | R 2.96 | F 2.57 | T 2.86 | P 2.11 | W 2.98 | S 4.08 | M 2.01
C10: P 2.22 | A 2.09 | S 1.72 | Y 2.2 | D 2.63 | F 2.53 | L 4.54 | W 1.4 | G 1.18 | Q 1.95 | N 1.79 | R 2.03 | E 1.94 | H 1.98 | K 1.72
